Assay results as given in US20060172407A1, “Bacterial cell digestion” (priority 2002, published 2006).

B1: domain 3 of EF-Tu: Polypeptide containing solely domain 3 (amino acids 299 to 394) of E. coli EF-Tu, expressed intracellularly from an introduced gene segment (protein)
chain: IKPHTKFESEVYILSKDEGGRHTPFFKGYRPQFYFRTTDVTGTIELPEGVEMVMPGDNIKMVVTLIHPIAMDDGLRFAIREGGRTVGAGVVAKVLG

Test system: E. coli
Experiment: Tests with E. coli: expression of the domain 3 of EF-Tu in cells, electron microscope pictures
Type: cell-based, Escherichia coli
Text: One especially advantageous procedure of the invention is as follows. The DNA segment of the EF-Tu gene of Escherichia coli that codes for the domain 3 is obtained and by means of molecular-genetic techniques is transferred into E. coli cells and expressed. In addition to this recombinant segment that contains solely the domain 3, but not domains 1 and 2 of EF-Tu, the cells as before have the native EF-Tu gene and can express it. The additionally synthesized domain 3 polypeptides, however, compete with the native EF-Tu proteins around the binding sites for the formation of the protofilaments. If a domain-3 polypeptide instead of a native EF-Tu protein is incorporated as a link, this leads to chain rupture as a result of the absence of the second binding site (the domain 2 is essential for chain formation) on the domain-3 polypeptide. […] As a result of the loss of integrity of the cytoskeleton, the cytoplasmic membrane of the cell loses it suspension. […] In this way, the cell wall that in the living bacteria cell is positioned and supported by the cytoplasmic membrane is destroyed (see FIG. 5). The loss of the cell wall and the cytoplasmic membrane means exposure of the contents of the cell so that the cell is lysed (cf. FIGS. 5 and 6). The cell contents can thus be recovered without further cell digestion.
Tests with E. coli, Electron microscope pictures, negative contrasting • a) Intact bacteria cells, containing their chromosome and in addition an empty vector (plasmid) that was used in continuing tests as a vector for introducing the domain-3 gene segment. These cells therefore represent controls. • b) Cells of a young culture. A plasmid that in expressible form contains the gene segment that codes for the domain 3 of EF-Tu had been introduced into these cells before the start of cultivation, in addition to its own native chromosome (that does contain the gene that codes intact EF-Tu). The effect of the expression of this “truncated” gene can be clearly seen: In addition to some cells that appear intact (they are recognizable as already weakened in their cell coating with a more exact analysis), the picture is determined by cell residues that indicate the original cell form, but have neither a wall nor CM. The wall and the CM have lost their suspension by destabilization of the cytoskeleton. […] The onetime cell form can no longer be detected; the cell residues form unorganized aggregations

[1] = ultrathin section, expressed in addition to the cell's own EF-Tu

Row | Molecule | state of the cells in electron microscope picture [1] | state of the cells in electron microscope picture (negative contrasting, cells of a young culture, plasmid expression in addition to native EF-Tu) | state of the cells in electron microscope picture (negative contrasting, old culture)
1 | EF-Tu: Full-length bacterial elongation factor EF-Tu introduced by genetic engineering and expressed in addition to the cell's own EF-Tu (control) [reference compound] | the cell is intact |  | 
2 | B1 | End stage of the dissolution of the cells | The cell contents are exposed | End stage of the dissolution of the cells
